Reference: the supplement of paper PMC9170038

Tested on: K4 kissing-loop RNA reporter
Assay: apparent KD of K4 kissing-loop reporter; higher = weaker reporter binding
Details: Eterna round: R107
Experimental: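 RNA-MaP round R107: designed RNA switches with theophylline, tryptophan, arginine or FMN aptamers are transcribed on-chip within common flanks. They are titrated with a labelled K4 kissing-loop RNA reporter in RNA-MaP buffer (100 mM Tris pH 7.5, 80 mM KCl, 4 mM MgCl2), without ligand or with the indicated ligand. Median apparent KD per design.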

[1] = input ligand: theophylline 20 uM
[2] = input ligand: tryptophan 2.4 mM
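Also: bound reporter read as fluorescence of individual clusters on recovered sequencing chips by microscopy, with normalized cluster intensities fitted with a binding model.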

Row | Sequence | apparent KD of K4 kissing-loop reporter (input ligand: FMN 200 uM) | apparent KD of K4 kissing-loop reporter (input ligand: arginine 13.2 mM) | apparent KD of K4 kissing-loop reporter (input ligand: none) | apparent KD of K4 kissing-loop reporter [1] | apparent KD of K4 kissing-loop reporter [2]
1 | GCCUGAGCACGAAGGAGCGCCGUGACAGGUUACUGCCUUGGGCAGUGAUGUUGCUCAAUCUGGCAGGUAGGUCGCGUGCUCAGGC | 165 nM | 161 nM | 162 nM | 131 nM | 167 nM
2 | UUGUUUGGUUGAGAGGUUGGGCGAGAUGAUACCAGUAUAGUAUAGUACCCUUGGCAGCAUAGGAGAGAUAUAGUGAUGUUGUAUG [SSTheophA.V] | 424 nM | 288 nM | 493 nM | 372 nM | 373 nM
3 | UGUCAUUGGUCUGAUACCAGCUUGAUCGGAAAACGAUCUGCUGGAGUGAUGUUCCAAUAAAGCCCUUGGCAGCAGACCGAUGACU [TheoBS 7 #SwitchBubble #StaticStem] | 854 nM | 569 nM | 991 nM | 961 nM | 763 nM
4 | AAGAAUGCAGGAAGGAGCGGCGGACGGAGUGAUGUUCCGGCUAGUGAUGUUAGCAAACACCGCCAGGUAGGUCGCCUGCUGCCCU [Same State Arginine B GF 6] | 207 nM | 127 nM | 171 nM | 153 nM | 151 nM
5 | GGACAAGCAUUAGGAUAUAUAGAGCGAAACGCAAUUGAGUGAUGUUCAAAAGCAUAGGGCGAGGAAAUAGAAGGAAUGCACGGGC [Default title] | 192 nM | 180 nM | 216 nM | 151 nM | 152 nM
6 | GACGUUGAAGCGGCCGCCACUAGGAAGGGUACGGAGAGUACAUCUCACGGAGAGUGAUGUUCUCAUAGGACCGGGCUCAUAUCAA [theeternabot_sameState_KL_Trp_B_21] | 308 nM | 215 nM | 605 nM | 238 nM | 362 nM
7 | UGUCAUUGGUCUGAUACCAGUUGAUAAACUGGAGUGAUGUUCCAAGAACGAGAAACUCGCAACCCUUGGCAGCAGACCGAUGACU [TheoBS 17 #SwitchBubble 13 #StaticStem] | 302 nM | 66.9 nM | 170 nM | 400 nM | 132 nM
8 | GGAUCCACCAGUGAUGUUGGAGAAAACUCUAAGGAUAUGACGAAAGUCAGAAGGUGGUAGACUGGUCAAAGUCCGGUCGGAUCCA [FmnA10 U30+U66] | 237 nM | 191 nM | 577 nM | 756 nM | 249 nM
9 | CCAAUCAGUUACGAUACCAGUCUAAUAUAUUUGAUCAAAACCCUCGCCGAGUGAUGUUCGGACCCUUGGCAGCGUCUGGGACAGG [fcctmullin] | 502 nM | 417 nM | 446 nM | 474 nM | 394 nM
10 | AGUACGGUGCCGUUCAGAUCAACGUAUGAUACCAGCUCGUAUAUUAGCCCUUGGCAGCAUCCGAGUGAUGUUCGGAUUGUGCCAC [theeternabot_exclusion_KL_Theo_A_45] | 113 nM | 98 nM | 102 nM | 93.5 nM | 102 nM
11 | AAAACUAUCAGAAGGAGCGUGGAAUAUACAUCUAUAUUUAAUACGAGUGAUGUUCGUAAUUCACAGGUAGGUCGCUGAUCAAUAA [whbob_Ex_Arginine_B_2th153] | 228 nM | 320 nM | 278 nM | 359 nM | 206 nM
12 | GCGAACAUUCGCAGUGAUGUUGCGACGGAAGGAGCGCGUGAAAACGCAGGUAGGUCGCCGACAACAUUAAUUUUAAUGUGUUCGC [Arginine A K4 28] | 411 nM | 308 nM | 425 nM | 356 nM | 256 nM
13 | UGAUAGGACAGAAGGAGCGGUAGUGAUGUUACCAAAAGGGUAAGGUGUCAAAAGACACCCUGCCAGGUAGGUCGCUGUCCUAUCU | 103 nM | 89.9 nM | 99.1 nM | 83.4 nM | 87 nM
14 | UGUCAUUGGUCGGCCGCCACUAUAAUAAAAGAGUGAUGUUCUAAAAGACGGACAAAAGUCUGUCGUAGGACCGGGACCGAUGACU [TrypBS 26 #SwitchBubble #StaticStem] | 1100 nM | 551 nM | 805 nM | 916 nM | 455 nM
15 | UGACUGGACUGAAGGAGCGCGCGAGACAAAGUCUCGAACUCCUAGUGAUGUUAGGAAAUAACGCAGGUAGGUCGCAGUCUAGUCU [ArgBS 10 #SwitchBubble #StaticStem #DoubleMagnet] | 225 nM | 190 nM | 243 nM | 209 nM | 241 nM
16 | GAUUCUGUUCGAAAGAACGGAAUCUCGGAAGGAGCGAGAGAAAUCUCAGGUAGGUCGCCGAAUUUUUGAUAGUGAUGUUAUCAUU [Arginine A K4 3] | 432 nM | 380 nM | 441 nM | 393 nM | 397 nM
17 | AGUCCACUCUAAAGAGUGGACCUAAGGGAUACCAGUGAUGUUGGUCACCCUUGGCAGCCCUCUGUCAUCGAUAAAGAUGGCAGUA | 119 nM | 101 nM | 118 nM | 130 nM | 131 nM
18 | UGUGUUGUUUUGAUGUUUGUUGUAAAAUGGCAGGAUAUCGUAGAGGCGAGAAGGGCUUUUAUGCGUUAUGAGUGAUGUUUGUAGG [zvvczmullin] | 338 nM | 283 nM | 352 nM | 340 nM | 263 nM
